Test results from US20180021429A1, “ANTICANCER AGENTS OR ANTIMETASTATIC AGENTS USING FSTL1 AND COMBINATION DRUG THEREOF” (PHARMA FOODS INTERNATIONAL CO., LTD., priority 2015, published 2018).
“Also recorded” adds a separate entry of the source.

Key:
[1] = test system: human peripheral blood cells; assay: Treg induction inhibition using human peripheral blood cells stimulated with FSTL1 (Example 25); format: cell-based; conditions: FSTL1 5 ng/ml, antibody 5 μg/mL, 3 days; FIG. 113
Method: Human peripheral blood cells (1×10^6 cells) were stimulated using FSTL1 (5 ng/ml), supplemented with the antibody (5 μg/mL), and cultured for 3 days. The percentage of a Foxp3^+CTLA4^+ cell fraction (Exp. 1) or a CD4^+Foxp3^+CTLA4^+ cell fraction (Exp. 2) in CD4^+ T cells was analyzed as Treg cells by flow cytometry. The flow cytometry conditions are as follows.
Blood was collected from a healthy person by the addition of a 1/10 amount of 4% sodium citrate, then layered on Ficoll (specific gravity: 1.090), and centrifuged (1500 rpm, 20 min, room temperature), and a cell fraction present in an intermediate layer was used as “PBMCs”. The antibody (5 μg/mL) was added to a system in which these PBMCs (1×10^6 cells) were cultured for 3 days under stimulation with FSTL1 (5 ng/ml) in a 24-well plate. PBMCs recovered from the culture system were incubated at 4° C. for 1 hour using an anti-CD4 antibody (BD Pharmingen/Becton, Dickinson and Company), an anti-CD25 antibody (BD Pharmingen/Becton, Dickinson and Company), and an anti-FoxP3 antibody (eBioscience). Then, the percentage of a Foxp3+CTLA4+ cell fraction (Exp. 1) or a CD4^+Foxp3^+CTLA4^+ cell fraction (Exp. 2) in CD4^+ T cells contained therein was analyzed as Treg cells using a flow cytometer FACScan (Becton, Dickinson and Company). […]

[2] = test system: induction of MSCs having the ability to differentiate into adipocytes; assay: Ability to differentiate into adipocytes (Examples 14, 16); format: cell-based, mouse; conditions: Example 16, FIG. 10B/40B; antibody 2.5-20.0 μg/ml
Method: The antibody clone (#6-55, #7, #10, #13, or […]) was evaluated for its activity by the same testing method as in Example 13. #6-55 was set as a positive control for activity. […] Mouse bone marrow cells were supplemented with FSTL1 and the predetermined concentration of each antibody and cultured for 8 days. 5×10^4 cells/well were separated from each culture system and evaluated for the ability to differentiate into adipocytes using an adipocyte differentiation reagent included in “Mesenchymal Stem Cell Functional Identification Kit (R&D Systems, Inc., Cat. No. SC010)”. For the evaluation method, the cells were supplemented with the adipocyte differentiation reagent and cultured for 8 days. Then, adipocytes per culture system were counted under a microscope for evaluation. […]
In the same way as in Example 15, mouse bone marrow cells were supplemented with FSTL1 and the predetermined concentration of each antibody and cultured for 8 days. 5×10^4 cells/well were separated from each culture system and evaluated for the ability to differentiate into adipocytes using an adipocyte differentiation reagent included in “Mesenchymal Stem Cell Functional Identification Kit (R&D Systems, Inc., Cat. No. SC010)”. […] Then, adipocytes per culture system were counted under a microscope for evaluation (FIG. 10B). […]

[3] = test system: Panc1, Panc1-snail+, MIAPaCa, MDA231, Hs294T; assay: Proliferative capacity and invasive capacity of various human tumor cells (Example 26); format: cell-based; conditions: antibody 5 μg/ml; 3 days culture; Matrigel transwell 4 hours
Method: Specifically, the influence of the anti-FSTL1 antibody on proliferative capacity and invasive capacity was studied using various human tumor cells, regardless of the presence or absence of the expression of Snail or FSTL1. Specifically, the anti-FSTL1 antibody (#6-55, 5 μg/ml) or a control antibody (aHema: mouse chimeric anti-hemagglutinin antibody, 5 μg/ml) was added to systems in which a pancreatic cancer cell line Panc1 (ATCC #CRL-1469), Panc1-snail+ which is a Panc1 cell line forced to express Snail, a pancreatic cancer cell line MIAPaCa (ATCC #CRL-1420), a bone metastatic breast cancer cell line MDA231 (ATCC #HTB-26), and a melanoma cell line Hs294T (ATCC #HTB-140) were each cultured at 1×10^5 cells. After culture for 3 days, the number of cells per culture system was counted to evaluate the proliferative capacity of the cells. The cells (5×10^4 cells) after the counting were further inoculated to Matrigel-coated transwell chamber (Corning Inc. #354480) and cultured for 4 hours. Then, the membranes were removed, and stained and fixed with Crystal Violet fixative. Then, the number of cells that permeated the membranes was counted under a microscope to evaluate the invasive capacity of the cells.

human FSTL1 = target: T1, human FSTL1 (Homo sapiens, UniProt Q12841); assay: ELISA binding activity of purified antibody against human FSTL1; conditions: FIG. 95B
T1 construct: AAA linker + 10xHis (C); made in house; host or cells: Expi293 (transient expression; purified from culture supernatant on HisPur Cobalt Resin)
T1 sequence (Q12841 with tags, fused parts or gaps): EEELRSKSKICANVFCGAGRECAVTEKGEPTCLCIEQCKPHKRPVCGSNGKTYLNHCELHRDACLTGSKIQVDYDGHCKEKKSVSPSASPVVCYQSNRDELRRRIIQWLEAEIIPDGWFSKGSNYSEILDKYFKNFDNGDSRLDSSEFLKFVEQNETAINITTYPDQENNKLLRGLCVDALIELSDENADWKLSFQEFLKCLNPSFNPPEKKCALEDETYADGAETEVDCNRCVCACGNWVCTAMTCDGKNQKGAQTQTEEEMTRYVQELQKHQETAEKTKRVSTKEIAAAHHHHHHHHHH
Method: The reactivity of the obtained antibody clones described above with FSTL1 was evaluated by ELISA under the following conditions.
(Table 2 ELISA Conditions for Binding Activity Evaluation of Purified Antibody)
Antibodies used: anti-dinitrophenyl (DNP) antibody (negative control), #5-2, #5-3, #5-8, #5-10, #5-43, #6-55, and #7-34
FIGS. 96 and 97 show results of evaluating binding activity under the condition of Table 3 as to clones differing in screening and antibody purification timings.
(Table 3 ELISA Conditions for Binding Activity Evaluation of Purified Antibody)

B1: #6-55: chicken-mouse chimeric anti-FSTL1 antibody clone; variable regions SEQ ID NO: 783 (light), 785 (heavy) (antibody, V domains shown)
VH: AVTLDESGGGLQTPGGALSLVCKGSGFTFTSVTMQWVRQAPGKGLEWVASVCSGSSTYYAPAVKGRATISRDNGQSTVRLQLSNLRPEDTGTYYCAKIAGRARWSCTSAAYNIDAWGHGTEVIVSS
VL: ASTQPSSVSAIPGETVKITCSGGGNNYGWYQQRSPGSAPVTVIYYNDNRPSNIPSRFSGSTSGSTSTLTITGVQADDEAIYYCGSWDSNTDSGIFGAGTTLTVL
modifications: mouse constant regions
[1]
  Treg induction caused by FSTL1 (Foxp3+CTLA4+ fraction in CD4+ T cells): significantly suppressed
[2]
  differentiation into adipocytes (induction of MSCs having the ability to differentiate into adipocytes): inhibited by #6-55 in an antibody dose-dependent manner; also recorded: cells differentiating into adipocytes decreased in number by the addition of #6-55 in a dose-dependent manner
[3]
  proliferative capacity and invasive capacity of tumor cells: both proliferative capacity and invasive capacity were strongly suppressed, particularly, in a highly metastatic tumor cell line highly expressing Snail
Human FSTL1
  binding activity against human FSTL1: specific and equivalently strong binding activity
